Measurements taken from the supplement of paper PMC9732359.
± gives the uncertainty stated by the source.

test: protein stability index of a GFP-peptide fusion (yeast GPS) (PSI 1-4); higher = more stable; sorted into four equal gates, so the index is relative within each strain; conditions: doa10∆
How it was run: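 The protein stability index combines read frequencies across sorting gates, each weighted by its gate number and then summed. To obtain those frequencies, a pooled yeast library of GFP fusions to tiled 17-residue yeast protein peptides, on a plasmid also expressing Cherry, was grown to mid-log phase in leucine-free medium. The cells were sorted into four equal gates by GFP/Cherry ratio before plasmid amplification by PCR and Illumina sequencing.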

With GLDQSRIPFSERKLKFS [FAS1] the protein stability index was 1.81 ± 0.061.

same assay, conditions: pdr5∆

FMDVITLDATNENFRLV [RPS4A] and FMGTAFNQEGDYNFKYG [PRP8] are within error of each other in protein stability index: 3.44 ± 0.28 for the first, 3.1 ± 0.09 for the second.

Compared with FNIISMTLKEMYQMITM [SMC4], FNKYADPTLTTTTSFTT [RPN4] is higher in protein stability index: 1.97 ± 0.054 for the first, 2.57 ± 0.042 for the second.

Compared with FNNGDDDDYGDEEDPNE [RPC31], FNRALDQSISKLQSWDK [NNF1] is lower in protein stability index: 2.36 ± 0.17 for the first, 1.49 ± 0.068 for the second.

FNTEAEQTVSAVTEATS [RGR1] and FNYQGDELVLNFENDNE [REC8] are within error of each other in protein stability index: 3.41 ± 0.15 for the first, 3.25 ± 0.17 for the second.

First: FPESIWKDFTVEIAFLF [YCG1]
Second: FPFVLKVDNDLRIELQS [SRB8]
The protein stability index of the first is lower: 2.43 ± 0.05 for the first, 3.05 ± 0.1 for the second.

FPPPSVAARAEILRIHS [RPT6] and FPSIPLPINGPITNKER [RPC31] are within error of each other in protein stability index: 2.5 ± 0.085 for the first, 2.37 ± 0.064 for the second.

Going from FPVDPTTPVKLGPGIYC [RRP40] to FPVSLSQPSKKSFANHT [SIR4], the protein stability index rises from 2.48 ± 0.056 to 2.87 ± 0.046.

Compared with FQDYLTQQAVNLEKNYL [IRR1], FQEGVVVAKKDFNQAKH [RPS10A] is higher in protein stability index: 2.12 ± 0.11 for the first, 2.92 ± 0.27 for the second.

Compared with FQLLEPLSTYNKNGNAV [PGD1], FQNSKSASLFKQRKNPR [RPL24A] is lower in protein stability index: 2.93 ± 0.057 for the first, 2.44 ± 0.077 for the second.

First: FQTIFSKQDLIHSLIPV [SIN4]
Second: FQTPFRRRREGKTDYYQ [RPL5]
The protein stability index of the first is lower: 1.9 ± 0.064 for the first, 3.31 ± 0.12 for the second.

Going from FREWQYFKLSITSFDQD [POP8] to FRYITTWENEFLDSQRV [PRP8], the protein stability index rises from 2.53 ± 0.06 to 2.69 ± 0.059.

First: FSISYKPPTQKTDTKVS [SRP21]
Second: FSKKGNEPLSEIEIEGV [YAR002W/NUP60]
The protein stability index of the first is lower: 2.15 ± 0.042 for the first, 3.17 ± 0.14 for the second.

FSQFWYWFPLAHFLSLS [RPN2] and FTAGARAKIVKAGGECI [RPL18A] are within error of each other in protein stability index: 1.32 ± 0.045 for the first, 1.27 ± 0.067 for the second.

Compared with FTITVARKYLQTRWGLP [FAS2], FTKYKPARSSSLRSNVV [YAR002W/NUP60] is higher in protein stability index: 1.29 ± 0.1 for the first, 2.44 ± 0.045 for the second.

FTNGVLAVTNLLIISCI [YML031W/NDC1] and FVCRGMAATQTIEQSPR [ECM29] are within error of each other in protein stability index: 1.85 ± 0.17 for the first, 1.93 ± 0.062 for the second.

FVDENTFQRVCQYMVAC [RPN1] and FVEEQNVYVLPKNLLKK [PRP8] are within error of each other in protein stability index: 2.59 ± 0.072 for the first, 2.5 ± 0.045 for the second.

First: FVFTNEPLTEIKNVIVS [RPP0]
Second: FVKPGTALDAEGAARGT [DIS3]
The protein stability index of the first is lower: 2.68 ± 0.089 for the first, 3.4 ± 0.2 for the second.

First: FVNETPRVIEPVYTAQW [PRP8]
Second: FVNGVWHGVHRNPARLM [RPB2]
The protein stability index of the first is higher: 2.31 ± 0.15 for the first, 1.44 ± 0.067 for the second.

Going from FVSNMGFDIQKSCEPVS [SIR4] to FVSSGFDTSIKLDIISD [RPN14], the protein stability index rises from 2.05 ± 0.12 to 2.53 ± 0.047.

First: FVSYFGKQIKSTIYNWG [YML103C/NUP188]
Second: FYKNKYSSKPYKVDNMT [RPN2]
The protein stability index of the first is lower: 1.39 ± 0.071 for the first, 2.84 ± 0.072 for the second.

Compared with FYVQDVYKDNLSFIQVR [RPO31], GAAPYAAKLKQTENDLK [RPT1] is higher in protein stability index: 1.69 ± 0.05 for the first, 2.35 ± 0.17 for the second.

Compared with GAGSIFTSHTRLRQGAA [RPL2A], GALPPDLSLIVKARHGG [CYT1] is lower in protein stability index: 3.2 ± 0.088 for the first, 1.97 ± 0.14 for the second.

GAMTPEEIFFKSVRILK [RPC40] and GAVIQLLKSTGLHPFEV [RPB4] are within error of each other in protein stability index: 3.28 ± 0.14 for the first, 3.19 ± 0.14 for the second.

Going from GCIKIYSSRVDSVTTET [BRN1] to GCVNSLISGPRNQILVS [YMR129W/POM152], the protein stability index falls from 2.52 ± 0.13 to 1.36 ± 0.22.

GDDESKIPAVEYFGGES [FAS1] and GDIESLFEQLQTVSNKE [SRP54] are within error of each other in protein stability index: 3.17 ± 0.29 for the first, 2.87 ± 0.079 for the second.

Compared with GDLASLVLLNGRLRNKS [RPP1], GDQFLRYVNLLGVTYSS [PRE4] is lower in protein stability index: 2.85 ± 0.041 for the first, 2.33 ± 0.062 for the second.

Going from GDRGALARASGNYVIII [RPL2A] to GDRQRLGEEHPLQVARC [RPT1], the protein stability index falls from 2.81 ± 0.11 to 1.32 ± 0.19.

Going from GDVSSGLFEKSTVSANH [BRN1] to GDYSQATVLSRKILKKT [RPN5], the protein stability index falls from 3.31 ± 0.094 to 2.87 ± 0.067.

Compared with GEIGDFFSSDWRFLQIL [POP1], GEIQLLFQRQKLHEFYL [IRR1] is higher in protein stability index: 2.79 ± 0.09 for the first, 2.96 ± 0.075 for the second.

GEITKTENEKFISYHDK [NUT1] and GEKNFTSAHLKLKEMQK [SMC4] are the same in protein stability index: 3.35 ± 0.077 for the first, 3.35 ± 0.12 for the second.

GELFLNESWKSSFEKFN [SRP72] and GEQIIVHPVNEREPVPL [RRP45] are within error of each other in protein stability index: 3.22 ± 0.11 for the first, 3.35 ± 0.12 for the second.

Compared with GFIDASCIAVMAGLMHF [RRP45], GFPSAPQPLFMEDPPST [YMR153W/NUP53] is higher in protein stability index: 1.55 ± 0.04 for the first, 3.08 ± 0.056 for the second.

First: GGEKTVAALALLFAINS [SMC1]
Second: GGESDSALILMYKGFGL [UBP6]
The protein stability index of the first is lower: 1.27 ± 0.092 for the first, 3.41 ± 0.076 for the second.

Going from GGIVTVRSEMGEPIHKI [FAS1] to GGLKSCDLDFPLRENTN [YDL116W/NUP84], the protein stability index falls from 2.91 ± 0.21 to 2.29 ± 0.059.

Compared with GGLQKGKLVVSQEMVPR [SIR3], GGNFKDLSTLVHSSSPS [GAL11] is lower in protein stability index: 2.83 ± 0.13 for the first, 1.46 ± 0.045 for the second.

Going from GGNSNKSPPQFFYNISS [SIN4] to GGRMFAPTKTWRKWNVK [RPL4A], the protein stability index falls from 3.04 ± 0.049 to 2.88 ± 0.11.

Compared with GGTSLFGNTSTSSAPAQ [YGL172W/NUP49], GGVDVGPSVESYELRNT [SNF5] is higher in protein stability index: 2.19 ± 0.096 for the first, 3.15 ± 0.11 for the second.

First: GHNDWVSQVRVVPNEKA [ASC1]
Second: GIEYNRVTNTTSTDFPG [RPC40]
The protein stability index of the first is lower: 2.85 ± 0.076 for the first, 3.33 ± 0.14 for the second.

Going from GIHDGHIKKLLHQYYGD [FAS1] to GIIEPSLKALASKYNCD [RPL40A], the protein stability index rises from 1.8 ± 0.051 to 3.27 ± 0.23.

GIKAKHDKNIQKLLKQL [ISW2] and GIKVLPETCLFVSYFGK [YML103C/NUP188] are within error of each other in protein stability index: 2.45 ± 0.048 for the first, 2.42 ± 0.038 for the second.

First: GIKYHATPPLKRFKDME [SMC1]
Second: GILLETISVPQIRDVME [RRP6]
The protein stability index of the first is higher: 3.25 ± 0.075 for the first, 2.56 ± 0.06 for the second.

Going from GILYMGQGEQVDDVLET [RPN1] to GINNLSEIWDVSRGQSA [PRP8], the protein stability index rises from 1.19 ± 0.15 to 2.67 ± 0.12.

GINSKSGKPFIAGFDLI [PUP3] and GISEVQARKSKSVSFYA [RPT5] are within error of each other in protein stability index: 3.29 ± 0.094 for the first, 3.39 ± 0.093 for the second.

Compared with GISMFDYISGISVGLYD [SKI6], GISSTLVSANNDNNSPH [YLR018C/POM34] is higher in protein stability index: 2.02 ± 0.069 for the first, 2.89 ± 0.06 for the second.

GISVPFHSTYLMNGVKP [FAS1] and GKEFGDVSVKMGNTKVH [RRP45] are within error of each other in protein stability index: 1.51 ± 0.04 for the first, 1.53 ± 0.083 for the second.

GKISKPRFLNKQERSKQ [PRP28] and GKKASLNVGNVLPLGSV [RPL2A] are within error of each other in protein stability index: 2.46 ± 0.13 for the first, 2.29 ± 0.057 for the second.

First: GKLEVPGYVDIVKTSSG [RPS19A]
Second: GKLGQIDYALTAVKQGV [PRE8]
The protein stability index of the first is higher: 2.85 ± 0.092 for the first, 1.93 ± 0.13 for the second.

GKLISNLSSTPMETLLS [YML031W/NDC1] showed a protein stability index of 2.92 ± 0.12.
